T1: human Fc Receptor-Like 5 (FcRL5), full length, expressed on cells (human, UniProt Q96RD9 16-977)
T1 construct: also called CD307e; IRTA2
T1 sequence: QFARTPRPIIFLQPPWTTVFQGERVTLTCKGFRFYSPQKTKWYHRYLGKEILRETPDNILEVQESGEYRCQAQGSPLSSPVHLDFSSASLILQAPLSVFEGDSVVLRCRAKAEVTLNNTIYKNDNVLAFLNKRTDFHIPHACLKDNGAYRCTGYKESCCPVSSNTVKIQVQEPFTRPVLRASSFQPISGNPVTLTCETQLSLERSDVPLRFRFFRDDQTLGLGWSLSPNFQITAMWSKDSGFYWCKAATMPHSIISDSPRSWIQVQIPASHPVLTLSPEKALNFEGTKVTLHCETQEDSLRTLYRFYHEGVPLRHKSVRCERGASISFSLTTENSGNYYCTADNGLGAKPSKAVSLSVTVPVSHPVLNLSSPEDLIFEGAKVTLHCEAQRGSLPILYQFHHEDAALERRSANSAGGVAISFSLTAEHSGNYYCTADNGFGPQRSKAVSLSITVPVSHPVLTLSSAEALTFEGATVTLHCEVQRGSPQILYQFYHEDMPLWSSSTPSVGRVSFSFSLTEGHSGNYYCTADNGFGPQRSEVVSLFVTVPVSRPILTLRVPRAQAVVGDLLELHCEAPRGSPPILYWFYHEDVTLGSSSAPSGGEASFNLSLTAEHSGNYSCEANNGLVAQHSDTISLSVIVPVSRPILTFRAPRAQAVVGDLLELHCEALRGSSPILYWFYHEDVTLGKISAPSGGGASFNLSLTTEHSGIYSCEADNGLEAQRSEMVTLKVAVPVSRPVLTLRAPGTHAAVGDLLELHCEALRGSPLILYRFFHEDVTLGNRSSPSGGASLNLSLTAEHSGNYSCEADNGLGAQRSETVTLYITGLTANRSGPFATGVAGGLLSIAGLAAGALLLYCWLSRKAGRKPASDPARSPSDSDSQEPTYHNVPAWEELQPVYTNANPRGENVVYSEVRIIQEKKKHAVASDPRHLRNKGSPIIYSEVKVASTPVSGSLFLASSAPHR


Biological target: T1, human Fc Receptor-Like 5 (FcRL5), full …
Experiment: scFv phage: ELISA on His-tag FcRL5, flow cytometry on FcRL5-overexpressing 3T3 and Raji cells

Row | Binder | binding result
1 | ET200-098 scFv (scFv, VL-linker-VH; screened as scFv phage clone) scFv: QPVLTQPPSVSKGLRQTATLTCTGNSNNVGNLGVAWLQQHQGHPPKLLSYRNNNRPSGISERLSASRSGNTASLTITGLQPEDEADYYCSAWDSSLSAWVFGGGTKLTVLGSRGGGGSGGGGSGGGGSLEMAEVQLVESGGVVVQPGGSLRLSCAASGFTFDDYAMHWVRQAPGKGLEWVSLINWDGGSTYYADSVKGRFTISRDNSKNSLYLQMNSLRAEDTALYYCAKGMGLRAFDYWGQGTLVTVSS | binds
2 | ET200-007 scFv (scFv, VL-linker-VH; screened as scFv phage clone) scFv: SYVLTQPLSVSVAPGKTARITCGGNNIGSKTVHWYQQKPGQAPVLVIYYDSDRPSGIPERFSGSNSGNTATLTISRVEAGDEADYYCQVWDSSSDHRVFGGGTKLTVLGSRGGGGSGGGGSGGGGSLEMAQVQLQESGPGLVKPSETLSLTCNVSGYSISSGYFWGWIRQPPGKGLEWIGSIYHSRSTYYNPSLKSRVTISVDTSKNQFSLKLNSVTAADTAVYYCARGYGYFDYWGQGTLVTVSS | binds
3 | ET200-103 scFv (scFv, VL-linker-VH; screened as scFv phage clone) scFv: QAVLTQPHSVSESPGKTVTISCTRSSGSIASNYVQWYQQRPGSAPTTVIYEDNQRPSGVPDRFSGSIDSSSNSASLTISGLKTEDEADYYCQSYDSTITVFGGGTKLTVLGSRGGGGSGGGGSGGGGSLEMAQVQLVQSGAEVKKPGSSVKVSCKASGGTFSSYAISWVRQAPGQGLEWMGGIIPIFGTANYAQKFQGRVTITADESTSTAYMELSSLRSEDTAVYYCAGEGYYDSSGYSNGDAFDIWGQGTMVTVSS | binds
4 | ET200-101 scFv (scFv, VL-linker-VH; screened as scFv phage clone) scFv: QAVLTQPPSASGAPGQRVTVSCSGSNSNIGSNYVNWYQQFPGTAPKLLMYSSSQRPSGVPDRFSGSKSGTSASLAISGLHSEDEADYYCATWDDSLNAWVFGGGTKLTVLGSRGGGGSGGGGSGGGGSLEMAEVQLVQSGAEVRKPGASVKVSCKTSGYTFTWYAIHWVRQAPGQRLEWMGWINAGSGNTKYSQKFQGRVTLTRDTSASTAYMELSSLRSDDTAVYYCARPNNYGSGGDVFDIWGQGTMVTVSS | binds
5 | ET200-105 scFv (scFv, VL-linker-VH; screened as scFv phage clone) scFv: SYVLTQPPSVSVSPGQTASITCSGDRLTNKYVSWYQQKPGQSPVLVIYEDAKRPSGIPARFSGSNSGNTATLTISGTQAMDESEYYCQAWDSSVVVFGGGTKLTVLGSRGGGGSGGGGSGGGGSLEMAEVQLVESGGGLVQPGRSLRLSCAASGFTFDDYAMHWVRQAPGKGLEWVSGISWNSGSIGYADSVKGRFTISRDNAKNSLYLQMNSLRDEDTALYYCAKDRGGGVIVKDAFDIWGQGTMVTVSS | binds
6 | ET200-100 scFv (scFv, VL-linker-VH; screened as scFv phage clone) scFv: NFMLTQPHSVSESPGKTVTISCTRSSGSIASNFVQWYQQRPGSAPTPMIYEDNNRPPGVPDRFSASVDSSSNSASLTISGLKTEDEADYYCQSYDTSNVVFGGGTKLTVLGSRGGGGSGGGGSGGGGSLEMAEVQLVESGGGLVQPGGSLRLSCAASGFTFSSYEMNWVRQAPGKGLEWVSYISSSGSTIYYADSVKGRFTISRDNAKNSLYLQMNSLRAEDTAVYYCARWDYGMDVWGQGTTVTVSS | binds
7 | ET200-104 scFv (scFv, VL-linker-VH; screened as scFv phage clone) scFv: NFMLTQPHSVSESPGKTVTISCTRSSGSIASNYVQWYQQRPGSAPTTVIYEDNQRPSGVPDRFSGSIDSSSNSASLTISGLKTEDEADYYCQSYDSSNVVFGGGTKVTVLGSRGGGGSGGGGSGGGGSLEMAEVQLVESGGGLVQPGGSLRLSCAASGFTFSSYEMNWVRQAPGKGLEWVSYISSSGSTIYYADSVKGRFTISRDNAKNSLYLQMNSLRAEDTAVYYCARWDYGMDVWGQGTTVTVSS | binds
8 | ET200-107 scFv (scFv, VL-linker-VH; screened as scFv phage clone) scFv: QSVVTQPPSVSAAPGEKVTISCSGSNFNVGNNDVSWYQQLPGAAPKLLIYDNNKRPSGIPDRFSGSKSGTSATLDITGLHSDDEADYYCGTWDSSLNTGGVFGTGTKVTVLGSRGGGGSGGGGSGGGGSLEMAEVQLVQSGAEVKKPGASVKVSCKASGYTFTSYTISWVRQAPGQGLEWMGWISTYNGLTNYAQNLQGRVTMTTDTFTTTAYMELRSLRSDDTAVYYCVREGSPDYGDFASFDYWGQGTLVTVSS | binds
9 | ET200-109 scFv (scFv, VL-linker-VH; screened as scFv phage clone) scFv: LPVLTQPPSASATPGQRVTISCSGTTSNIGSNTVHWYQQLPGTAPKLLIYNNNQRPSGVPDRFSGSKSGTSASLAISGLRSEDEATYSCATWDDSLSGVVFGGGTKLTVLGSRGGGGSGGGGSGGGGSLEMAEVQLVQSGAEVKKPGSSVKVSCKASGGTFSSYAISWVRQAPGQGLEWMGGIIPIFGTANYAQKFQGRVTITADESTSTAYMELSSLRSEDTAVYYCARDPAYGDYEYDAFDIWGQGTMVTVSS | binds
10 | ET200-108 scFv (scFv, VL-linker-VH; screened as scFv phage clone) scFv: QSVLTQPPSVSAPPGQKVTISCSGSSSNIGNNYVSWYQQFPGTAPKLLIYDNNKRPSGISDRFSGSKSGTSATLGIAGLQTGDEADYYCGTWDTSLSGFYVFGSGTKVTVLGSRGGGGSGGGGSGGGGSLEMAEVQLVQSGAEVKKPGASVKVSCKASGYTFTSYTISWVRQAPGQGLEWMGWISTYNGLTNYAQNLQGRVTMTTDTFTTTAYMELRSLRSDDTAVYYCVREGSPDYGDFASFDYWGQGTLVTVSS | binds
11 | ET200-110 scFv (scFv, VL-linker-VH; screened as scFv phage clone) scFv: QSVLTQPPSASGTPGQRVTISCSGSSSNIGTNGVNWFQQFPGTAPKLLIYTNDQRPSGVPDRFSGSKSGTSASLAISGLQSADEADYYCAVWDHSLNGPVFGGGTKLTVLGSRGGGGSGGGGSGGGGSLEMAQVQLVQSGAEVKKPGSSVKVSCKASGGTFSSYAISWVRQAPGQGLEWMGGIIPIFGTANYAQKFQGRVTITADESTSTAYMELSSLRSEDTAVYYCARGAGFDAFDIWGQGTMVTVSS | binds
12 | ET200-102 scFv (scFv, VL-linker-VH; screened as scFv phage clone) scFv: QSVVTQPPSVSAAPGQKVTISCSGSSSNIGNNYVSWYQQLPGTAPKLLIYDNNKRPSGIPDRFSGSKSGTSATLGITGLQTGDEADYYCGTWDSSLSAYVFGTGTKVTVLGSRGGGGSGGGGSGGGGSLEMAQVQLVQSGAEVKKPGASVKVSCKASGYTFTNYALHWVRQAPGQGLEWMAWINGGNGNTKYSQNFQGRVTITRDTSASTAYMELSSLRSEDTAVYYCAKPEETAGTIHFDYWGQGTPVTVSS | binds
13 | ET200-097 scFv (scFv, VL-linker-VH; screened as scFv phage clone) scFv: LPVLTQPPSVSVSPGQTAIITCSGDKLGEKYVSWYQQKPGQSPVLVIDQDTRRPSGIPERFSGSNSGTTATLTISGTQAMDEADYYCQAWDRGVVFGGGTKLTVLGSRGGGGSGGGGSGGGGSLEMAEVQLVESGGDLVQPGRSLRLSCAASGFTFNDYAMHWVRQAPGKGLEWVSGISWSGNNIGYADSVKGRFTISRDNAKNSLYLQMNSLRAEDTALYYCAKDSIRYGITWGGFDYWGQGTLVTVSS | binds
14 | ET200-081 scFv (scFv, VL-linker-VH; screened as scFv phage clone) scFv: QSALTQPASVSGSPGQSITISCTGTSSDIGGYNYVSWYQQHPGKAPKLMIYDVSNRPSGVSNRFSGSKSGNTASLTISGLQAEDEADYYCISYTRTWNPYVFGSGTKVTVLGSRGGGGSGGGGSGGGGSLEMAEVQLVQSGGGVVQPGGSLRLSCAASGFTFDDYAMHWVRQAPGKGLEWVSLISGDGGSTYYADSVKGRFTISRDNSKNSLYLQMNSLRTEDTALYYCAKDRAAAGYYYYGMDVWGQGTTVTVSS | binds
15 | ET200-099 scFv (scFv, VL-linker-VH; screened as scFv phage clone) scFv: QSVLTQPPSASGTPGQRVTISCSGSSSNIGSNTVNWYQQLPGTAPKLLIYSNDQRPSGVPDRFSGSKSGTSASLAISGLQSEDEADYYCASWDDSLNGRYVFGTGTKVTVLGSRGGGGSGGGGSGGGGSLEMAQVQLVQSGAEVRKPGASVKVSCKTSGYTFSWYAIHWVRQAPGQRLEWMGWINAGNGNTKYSQKFQGRVSLTRDTSASTAYMELSSLRSDDTAVYYCARPDNYGSGGDVFDIWGQGTMVTVSS | binds
16 | ET200-008 scFv (scFv, VL-linker-VH; screened as scFv phage clone) scFv: QSALTQPASVSGSPGQSITISCTGTSSDVGGYNYVSWYQQHPGKAPKLMIYDVSNRPSGVSNRFSGSKSGNTASLTISGLQAEDEADYYCSSYTSSSTSKVFGGGTKLTVLGSRGGGGSGGGGSGGGGSLEMAEVQLVESGGGVVRPGGSLRLSCAASGFTFGDYGMSWVRQAPGKGLEWVSGINWNGGSTGYADSVKGRFTISRDNAKNSLYLQMNSLRAEDTAVYYCARSKYNFHVYYDYWGQGTLVTVSS | binds
17 | ET200-106 scFv (scFv, VL-linker-VH; screened as scFv phage clone) scFv: SYELTQPPAASGTPGQRVTISCSGGVSNIGSGALNWYQQLPGTAPKLLIYSYNQRPSGVSDRFSGSRSATSASLAISGLQSEDEADYYCATWDDSVNGWVFGGGTKLTVLGSRGGGGSGGGGSGGGGSLEMAEVQLVESGAEVKKPGDSVKVSCKPSGYNFLNYGINWVRQAPGQGLEWMGWISTYTGNTNYAQKLQGRVTFTTDTSTSTAYMEMRSLRSDDTAVYYCARQQGGGWYDVWGQGTLVTVSS | binds

Source: patent US20230020729A1 (Memorial Sloan Kettering, published 2023)
